Test results published in the supplement of paper PMC10126150.
± gives the standard deviation of the averaged measurements.

Tested on: ATP
Test: switch fluorescence ratio, 500 uM ATP over buffer (Cy3 cluster intensity, sum of 5 cycles each) (fold (ratio)); higher = stronger signal-on switching upon ATP binding; sequences stand for … in TCGTCGGCAGCGTCAGATGTGTATAAGAGACAGTTTTTTTTTTTTTTTTTTTTTTTTT…TC
Details: aptamer strand: ATP DNA aptamer (quencher-CACCTGGGGGAGTATTGCGGAGGAAGG + anchor), 100 nM annealed; ATP concentration: 500 uM
In short: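 Clusters with intensities outside 100-1000 RFU were excluded. The remaining Cy3-labelled switching-strand clusters on a modified Illumina MiSeq flow-cell had been annealed to 100 nM quencher-labelled ATP aptamer and imaged in selection buffer, then after 15 min with 500 uM ATP at 22 °C, for five cycles separated by NaOH stripping and re-annealing. The fluorescence ratio, averaged per switch-domain sequence, is each cluster's summed target-cycle Cy3 intensity over its summed buffer-cycle Cy3 intensity.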
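Also: ATP exposure 15 min at 22 °C before imaging.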

Row | Sequence | switch fluorescence ratio
1 | AAAAAAATGT | 1.054 ± 0.01
2 | AAAAAAGAGA | 0.977 ± 0.046
3 | AAAAAAGGGA | 0.995 ± 0.022
4 | AAAAAAGTAG | 1.03 ± 0.012
5 | AAAAAAGTTA | 1 ± 0.064
6 | AAAAAATCGT | 1.02 ± 0.057
7 | AAAAAATGGA | 1.01 ± 0.031
8 | AAAAAATTAA | 1.04 ± 0.026
9 | AAAAAATTTA | 0.996 ± 0.043
10 | AAAAACAAAA | 1.04 ± 0.065
11 | AAAAACATTT | 0.998 ± 0.051
12 | AAAAACGCTG | 1.039 ± 0.0093
13 | AAAAAGGGGA | 1 ± 0.032
14 | AAAAAGGGGG | 1.02 ± 0.045
15 | AAAAAGTATG | 1 ± 0.026
16 | AAAAAGTCGG | 1.04 ± 0.029
17 | AAAAAGTCTT | 1 ± 0.015
18 | AAAAAGTTGG | 1.005 ± 0.0099
19 | AAAAAGTTGT | 1 ± 0.028
20 | AAAAATGTAT | 0.975 ± 0.019
21 | AAAAATTTTA | 0.993 ± 0.026
22 | AAAAATTTTG | 1.04 ± 0.056
23 | AAAACAAAAT | 1.05 ± 0.026
24 | AAAACAGTAA | 1.02 ± 0.032
25 | AAAACGACCC | 1.11 ± 0.07

Row | Sequence | switch fluorescence ratio
26 | AAAACGATAT | 1.046 ± 0.0062
27 | AAAACGGTTG | 1 ± 0.019
28 | AAAACGTATA | 1.07 ± 0.039
29 | AAAACTCTGT | 1.04 ± 0.015
30 | AAAACTTATG | 1.026 ± 0.0033
31 | AAAACTTTTG | 1.02 ± 0.038
32 | AAAACTTTTT | 1.04 ± 0.051
33 | AAAAGAAAGG | 0.985 ± 0.012
34 | AAAAGACGTT | 1 ± 0.029
35 | AAAAGAGCCC | 1.0191 ± 0.0008
36 | AAAAGAGGGA | 0.999 ± 0.043
37 | AAAAGATGGG | 1.02 ± 0.0016
38 | AAAAGCTTTA | 0.983 ± 0.018
39 | AAAAGGAAAG | 0.957 ± 0.037
40 | AAAAGGAACT | 1.04 ± 0.044
41 | AAAAGGAAGT | 1.01 ± 0.016
42 | AAAAGGACTT | 0.994 ± 0.002
43 | AAAAGGCTAA | 1 ± 0.0037
44 | AAAAGGGCAG | 0.986 ± 0.031
45 | AAAAGGGGTT | 1.02 ± 0.043
46 | AAAAGGGTCG | 1.05 ± 0.087
47 | AAAAGGGTTG | 0.99 ± 0.033
48 | AAAAGTAAAG | 0.987 ± 0.033
49 | AAAAGTACGA | 1.07 ± 0.011
50 | AAAAGTACGC | 1.09 ± 0.11

Row | Sequence | switch fluorescence ratio
51 | AAAAGTGGGA | 1.03 ± 0.031
52 | AAAAGTTACA | 1.027 ± 0.0092
53 | AAAAGTTGGG | 1.01 ± 0.014
54 | AAAAGTTTTG | 1.01 ± 0.011
55 | AAAATAAGAG | 1.009 ± 0.0037
56 | AAAATACAGA | 1.08 ± 0.17
57 | AAAATAGATT | 1.032 ± 0.0078
58 | AAAATATTTA | 1.02 ± 0.012
59 | AAAATATTTG | 0.964 ± 0.011
60 | AAAATCGACC | 1.08 ± 0.011
61 | AAAATGCCAC | 1.04 ± 0.024
62 | AAAATGCGAG | 1 ± 0.0062
63 | AAAATGGGGG | 1 ± 0.03
64 | AAAATTAGGA | 1.02 ± 0.069
65 | AAAATTAGGT | 0.9779 ± 0.0093
66 | AAAATTATTG | 1 ± 0.022
67 | AAAATTCAGT | 0.9893 ± 0.0089
68 | AAAATTTAGC | 0.964 ± 0.054
69 | AAAATTTTGT | 1 ± 0.021
70 | AAACAAGCTT | 1.02 ± 0.021
71 | AAACAAGTTG | 1.02 ± 0.035
72 | AAACACCGGG | 1.11 ± 0.031
73 | AAACACGGTG | 1.19 ± 0.17
74 | AAACAGGAGT | 1.008 ± 0.0037
75 | AAACAGGGAG | 0.974 ± 0.075

Row | Sequence | switch fluorescence ratio
76 | AAACAGGGTA | 0.9906 ± 0.0079
77 | AAACAGTTAT | 1.03 ± 0.042
78 | AAACATTATT | 1 ± 0.063
79 | AAACCATCCG | 1.63 ± 0.064
80 | AAACCCGATA | 1.05 ± 0.025
81 | AAACCGGGGT | 1.66 ± 0.94
82 | AAACGCCATT | 1.13 ± 0.018
83 | AAACGCTGCG | 1.02 ± 0.035
84 | AAACGGGTCA | 0.983 ± 0.03
85 | AAACGGTGTG | 1.03 ± 0.037
86 | AAACGTAACG | 1.07 ± 0.029
87 | AAACGTATGT | 0.9984 ± 0.0079
88 | AAACGTTGCT | 1.19 ± 0.015
89 | AAACTACTCT | 1.03 ± 0.02
90 | AAACTAGAAG | 1.01 ± 0.019
91 | AAACTGGATG | 0.9783 ± 0.0039
92 | AAACTTCGCT | 1.27 ± 0.25
93 | AAACTTGTAA | 1.01 ± 0.027
94 | AAACTTTTTC | 1.02 ± 0.065
95 | AAAGAAAAAA | 1.012 ± 0.0025
96 | AAAGAAAGGA | 0.977 ± 0.032
97 | AAAGAGAGAC | 1.0086 ± 0.00021
98 | AAAGAGCTAG | 1 ± 0.053
99 | AAAGAGGCGG | 1.006 ± 0.0013
100 | AAAGAGGGGA | 1.03 ± 0.016

Row | Sequence | switch fluorescence ratio
101 | AAAGAGGGTG | 1.1 ± 0.058
102 | AAAGAGGTAG | 0.9983 ± 0.0024
103 | AAAGAGGTTT | 0.985 ± 0.034
104 | AAAGAGTGCG | 1 ± 0.042
105 | AAAGATAGAT | 1.002 ± 0.0027
106 | AAAGATCGTT | 0.9799 ± 0.0055
107 | AAAGATTTTG | 0.982 ± 0.031
108 | AAAGCAGGGG | 1.06 ± 0.037
109 | AAAGCCGGTT | 0.9689 ± 0.004
110 | AAAGCCTGGG | 0.966 ± 0.027
111 | AAAGCGGATG | 0.986 ± 0.077
112 | AAAGCGTATA | 0.987 ± 0.052
113 | AAAGCTGGGG | 0.981 ± 0.048
114 | AAAGCTGGGT | 1 ± 0.026
115 | AAAGGAAAGG | 0.992 ± 0.014
116 | AAAGGAAGGG | 0.989 ± 0.033
117 | AAAGGAATTT | 1.12 ± 0.19
118 | AAAGGAGATT | 0.996 ± 0.028
119 | AAAGGAGTA | 1.01 ± 0.037
120 | AAAGGATACG | 1.01 ± 0.034
121 | AAAGGCCAGT | 1.03 ± 0.018
122 | AAAGGCCGGA | 1.03 ± 0.041
123 | AAAGGCCGTC | 1.04 ± 0.012
124 | AAAGGCCTG | 1.01 ± 0.017
125 | AAAGGCTCGG | 0.978 ± 0.022

Row | Sequence | switch fluorescence ratio
126 | AAAGGGCTCT | 0.9821 ± 0.0078
127 | AAAGGGGTTT | 1.02 ± 0.022
128 | AAAGGGTATA | 0.978 ± 0.064
129 | AAAGGGTGGC | 1.01 ± 0.028
130 | AAAGGGTTGC | 0.999 ± 0.041
131 | AAAGGTAGGG | 0.993 ± 0.032
132 | AAAGGTAGTA | 0.9934 ± 0.0097
133 | AAAGGTCAGG | 1 ± 0.028
134 | AAAGGTGCCA | 1.05 ± 0.015
135 | AAAGGTTATC | 1.018 ± 0.0098
136 | AAAGTCTTT | 1.02 ± 0.047
137 | AAAGTGAGGT | 1.01 ± 0.017
138 | AAAGTGGTGG | 1.02 ± 0.039
139 | AAAGTGTTGT | 0.979 ± 0.039
140 | AAAGTGTTTG | 1.02 ± 0.016
141 | AAAGTGTTTT | 0.995 ± 0.051
142 | AAAGTTGATT | 1.01 ± 0.03
143 | AAAGTTTCAT | 0.991 ± 0.034
144 | AAATAAAAAC | 1.08 ± 0.044
145 | AAATAACGAG | 1 ± 0.036
146 | AAATACCGGC | 1.1 ± 0.16
147 | AAATACGTCT | 1.09 ± 0.096
148 | AAATAGGCAT | 1.0235 ± 0.00029
149 | AAATAGGGGT | 1 ± 0.039
150 | AAATAGGGTA | 0.993 ± 0.023

Row | Sequence | switch fluorescence ratio
151 | AAATAGGTG | 1.12 ± 0.058
152 | AAATAGGTGA | 1.05 ± 0.025
153 | AAATAGGTTG | 1.01 ± 0.021
154 | AAATAGTGG | 0.9626 ± 0.0063
155 | AAATATATTA | 1.02 ± 0.016
156 | AAATATTGGG | 0.98 ± 0.068
157 | AAATATTGTG | 0.982 ± 0.023
158 | AAATCCGAAT | 1.01 ± 0.069
159 | AAATCGAGCT | 1.04 ± 0.049
160 | AAATCGAGGA | 1.018 ± 0.0096
161 | AAATCGGGGG | 1.05 ± 0.084
162 | AAATCGTAGT | 0.9885 ± 0.0069
163 | AAATCGTGGA | 0.987 ± 0.011
164 | AAATCGTTGT | 0.975 ± 0.043
165 | AAATCTCGGA | 1.2 ± 0.31
166 | AAATCTCTGA | 1.01 ± 0.025
167 | AAATCTTTCG | 1.05 ± 0.044
168 | AAATGACAGT | 1.01 ± 0.028
169 | AAATGAGTTA | 0.99 ± 0.019
170 | AAATGCAAAG | 0.991 ± 0.016
171 | AAATGCCAGG | 1.08 ± 0.032
172 | AAATGGAGTG | 0.987 ± 0.018
173 | AAATGGGAAA | 1.06 ± 0.084
174 | AAATGGTGTC | 1.01 ± 0.055
175 | AAATGTCTAA | 1 ± 0.019

Row | Sequence | switch fluorescence ratio
176 | AAATGTTCCG | 1.03 ± 0.011
177 | AAATGTTCGT | 1.011 ± 0.0058
178 | AAATGTTTAC | 1.034 ± 0.0095
179 | AAATTAACAT | 1.08 ± 0.13
180 | AAATTAGAGG | 1 ± 0.026
181 | AAATTAGTGT | 0.968 ± 0.018
182 | AAATTATTTT | 0.999 ± 0.014
183 | AAATTCATAC | 1.052 ± 0.0078
184 | AAATTCGCTG | 1.01 ± 0.095
185 | AAATTCGGCG | 1.01 ± 0.023
186 | AAATTCGGTT | 0.99 ± 0.013
187 | AAATTGAGGG | 1.02 ± 0.061
188 | AAATTGATCC | 0.964 ± 0.016
189 | AAATTGGCTT | 0.97 ± 0.044
190 | AAATTGGGTT | 0.9768 ± 0.0091
191 | AAATTGTCAA | 1.01 ± 0.05
192 | AAATTTAATC | 1.02 ± 0.034
193 | AAATTTAGGA | 0.987 ± 0.021
194 | AAATTTAGTT | 1.017 ± 0.006
195 | AAATTTCTTT | 0.996 ± 0.016
196 | AAATTTGAAT | 1.0094 ± 0.00021
197 | AAATTTGCGT | 0.987 ± 0.02
198 | AAATTTGGGA | 0.969 ± 0.027
199 | AAATTTGGGG | 1 ± 0.038
200 | AAATTTTGAA | 0.977 ± 0.021
